Bounds are passed on as bounds.

The text below walks through data of patent US20250340662A1.

Assay [1] has as its target CD44v6 on cultured cancer cells (BHT-101, ACT-1, A431) (human) (UniProt P16070). In words: live BHT-101 cells; apparent KD.
For assay [2] the target is unchanged. The assay can be described thus: LigandTracer, 125I-IgG4 on BHT-101 cells.
For assay [3] the target is unchanged. The assay can be described thus: LigandTracer, 177Lu-antibody on A431 cells.
The target in assay [4] is Human CD44v6 iso4-Fc (human) (UniProt P16070). The assay can be described thus: SPR SCK, antibody immobilised, CD44v6-Fc injected.
Assay [5] shares this target. In words: SPR SCK, antibody immobilised, CD44v6-Fc injected; apparent KD.
In assay [6] the target is Cynomolgus v6-peptide (cynomolgus). The assay can be described thus: SPR SCK, antibody immobilised, peptide injected.
A further assay concerns the target T1, Human v6-peptide (human).
T1 sequence (peptide, N-terminal biotin): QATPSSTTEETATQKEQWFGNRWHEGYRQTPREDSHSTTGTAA
In words: SPR SCK, antibody immobilised, peptide injected.

Chain of Human CD44v6 iso4-Fc (human) (P16070 other isoform, or with tags, fused parts or gaps limits assumed): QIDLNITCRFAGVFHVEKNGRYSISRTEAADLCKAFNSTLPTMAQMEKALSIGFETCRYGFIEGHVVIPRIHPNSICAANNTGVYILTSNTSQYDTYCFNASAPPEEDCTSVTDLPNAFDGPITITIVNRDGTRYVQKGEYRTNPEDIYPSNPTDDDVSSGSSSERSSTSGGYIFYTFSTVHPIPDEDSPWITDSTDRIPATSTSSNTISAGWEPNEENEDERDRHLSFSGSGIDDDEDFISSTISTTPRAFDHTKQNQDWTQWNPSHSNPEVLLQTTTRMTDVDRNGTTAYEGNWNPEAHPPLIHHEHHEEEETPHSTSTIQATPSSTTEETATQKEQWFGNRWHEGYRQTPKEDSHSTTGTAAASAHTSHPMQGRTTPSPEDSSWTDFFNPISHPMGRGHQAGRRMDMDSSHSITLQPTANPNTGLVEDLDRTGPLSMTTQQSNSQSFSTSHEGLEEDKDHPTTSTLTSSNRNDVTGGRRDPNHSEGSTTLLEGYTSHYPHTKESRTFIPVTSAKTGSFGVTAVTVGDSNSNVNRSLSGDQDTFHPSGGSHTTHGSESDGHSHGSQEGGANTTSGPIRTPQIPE
Chain of Cynomolgus v6-peptide (cynomolgus) (peptide, as listed by the source): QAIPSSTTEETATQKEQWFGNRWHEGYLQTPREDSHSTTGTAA

B1: AL-MN114-465 hIgG4 (antibody, V domains shown)
VH: EVQLLESGGGLVQPGGSLRLSCAASGFSFGSYAMSWVRQAPGKGLEWVSAISAGGSSTFYADSVKGRFTISRDNSKNTLYLQMNSLRAEDTAVYYCARHYYSDSDYRSSAAMDYWGQGTLVTVSS
VL: DIQMTQSPSSLSASVGDRVTITCRASQSISSYLNWYQQKPGKAPKLLIYTASSLQSGVPSRFSGSGSGTDFTLTISSLQPEDFATYYCQQDLYLLTFGQGTKLEIK
Consider B1, for which the Kd in assay [1] was less than 0.2 nM; in assay [2], 0.03 nM; in assay [3] it was 0.03 nM.

B2: BIWA4 IgG1 LALA (antibody, from another filing, V domains shown)
VH: EVQLVESGGGLVKPGGSLRLSCAASGFTFSSYDMSWVRQAPGKGLEWVSTISSGGSYTYYLDSIKGRFTISRDNAKNSLYLQMNSLRAEDTAVYYCARQGLDYWGRGTLVTVSS
VL: EIVLTQSPATLSLSPGERATLSCSASSSINYIYWYQQKPGQAPRLLIYLTSNLASGVPARFSGSGSGTDFTLTISSLEPEDFAVYYCLQWSSNPLTFGGGTKVEIKR
For the molecule B2, the koff in assay [4] was 0.00027 s⁻¹; in assay [6], 0.0035 s⁻¹; in the assay with Human v6-peptide (human) it was 0.0035 s⁻¹. For the same molecule, the kon worked out at 370000 M⁻¹ s⁻¹ in assay [4], 280000 M⁻¹ s⁻¹ in assay [6] and 240000 M⁻¹ s⁻¹ in the assay with Human v6-peptide (human). For the same molecule, the results for the Kd (in assay [5]; in assay [6]; in the assay with Human v6-peptide (human)) were 0.72 nM, 12 nM and 15 nM, respectively.

B3: BIWA4 IgG1 LALA IAHA (antibody, from another filing, V domains shown)
VH: EVQLVESGGGLVKPGGSLRLSCAASGFTFSSYDMSWVRQAPGKGLEWVSTISSGGSYTYYLDSIKGRFTISRDNAKNSLYLQMNSLRAEDTAVYYCARQGLDYWGRGTLVTVSS
VL: EIVLTQSPATLSLSPGERATLSCSASSSINYIYWYQQKPGQAPRLLIYLTSNLASGVPARFSGSGSGTDFTLTISSLEPEDFAVYYCLQWSSNPLTFGGGTKVEIKR
As for B3, the koff came to 0.00033 s⁻¹ in assay [4], 0.0036 s⁻¹ in assay [6] and 0.0027 s⁻¹ with Human v6-peptide (human). Moreover, the values for the kon (in assay [4]; in assay [6]; with Human v6-peptide (human)) were 24000 M⁻¹ s⁻¹, 83000 M⁻¹ s⁻¹ and 36000 M⁻¹ s⁻¹, respectively. Besides, the Kd in assay [5] stood at 14 nM; in assay [6] it was 44 nM; in the assay with Human v6-peptide (human), 73 nM.

As usually defined, the koff is the rate constant with which the complex falls apart. A higher koff goes with fast dissociation. Usually kon stands for a measure of how fast the partners come together. Low values mean slower complex formation, high ones faster complex formation.
